The record followed here is patent publication US20210388087A1.

The target of the experiment is Human CD3eg linker (human). The experiment can be described thus: SPR; fold vs parent H183/L072. A general note: SPR reads the build-up and loss of mass on a sensor chip optically.
Chain of Human CD3eg linker (human) (chain, as listed by the source limits assumed): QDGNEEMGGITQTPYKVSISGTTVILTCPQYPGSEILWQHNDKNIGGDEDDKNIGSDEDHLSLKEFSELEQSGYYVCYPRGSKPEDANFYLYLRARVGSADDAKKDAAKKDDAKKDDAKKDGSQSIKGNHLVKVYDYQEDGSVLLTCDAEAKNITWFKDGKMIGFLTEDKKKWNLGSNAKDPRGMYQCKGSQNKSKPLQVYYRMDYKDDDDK

B1: H183/L072 VL N28R (antibody, name in Kabat numbering, V domains shown)
VH: QVQLVESGGGLVQPGRSLRLSCAASGFTFSNAWMHWVRQAPGKGLEWVAQIKDKGNAYAAYYAPSVKGRFTISRDDSKNSIYLQMNSLKTEDTAVYYCHYVHYASASTVLPAFGVDAWGQGTTVTVSS
VL: DIVMTQSPLSLPVTPGEPASISCQASQELVHMRRNTYLHWYQQKPGQAPRLLIYKVSNRFPGVPDRFSGSGSGTDFTLKISRVEAEDVGVYYCAQGTSVPFTFGQGTKLEIK
In the case of B1, the fold change of affinity was 0 fold.

B2: H183/L072 VL T31Y (antibody, name in Kabat numbering, V domains shown)
VH: QVQLVESGGGLVQPGRSLRLSCAASGFTFSNAWMHWVRQAPGKGLEWVAQIKDKGNAYAAYYAPSVKGRFTISRDDSKNSIYLQMNSLKTEDTAVYYCHYVHYASASTVLPAFGVDAWGQGTTVTVSS
VL: DIVMTQSPLSLPVTPGEPASISCQASQELVHMNRNYYLHWYQQKPGQAPRLLIYKVSNRFPGVPDRFSGSGSGTDFTLKISRVEAEDVGVYYCAQGTSVPFTFGQGTKLEIK
For the molecule B2, the fold change of affinity was found to be 0 fold.

B3: H183/L072 VL L33Y (antibody, name in Kabat numbering, V domains shown)
VH: QVQLVESGGGLVQPGRSLRLSCAASGFTFSNAWMHWVRQAPGKGLEWVAQIKDKGNAYAAYYAPSVKGRFTISRDDSKNSIYLQMNSLKTEDTAVYYCHYVHYASASTVLPAFGVDAWGQGTTVTVSS
VL: DIVMTQSPLSLPVTPGEPASISCQASQELVHMNRNTYYHWYQQKPGQAPRLLIYKVSNRFPGVPDRFSGSGSGTDFTLKISRVEAEDVGVYYCAQGTSVPFTFGQGTKLEIK
For B3, the fold change of affinity is 0 fold.

B4: H183/L072 VL N28F (antibody, name in Kabat numbering, V domains shown)
VH: QVQLVESGGGLVQPGRSLRLSCAASGFTFSNAWMHWVRQAPGKGLEWVAQIKDKGNAYAAYYAPSVKGRFTISRDDSKNSIYLQMNSLKTEDTAVYYCHYVHYASASTVLPAFGVDAWGQGTTVTVSS
VL: DIVMTQSPLSLPVTPGEPASISCQASQELVHMFRNTYLHWYQQKPGQAPRLLIYKVSNRFPGVPDRFSGSGSGTDFTLKISRVEAEDVGVYYCAQGTSVPFTFGQGTKLEIK
With B4, the fold change of affinity was 0 fold.

B5: H183/L072 VL N28Y (antibody, name in Kabat numbering, V domains shown)
VH: QVQLVESGGGLVQPGRSLRLSCAASGFTFSNAWMHWVRQAPGKGLEWVAQIKDKGNAYAAYYAPSVKGRFTISRDDSKNSIYLQMNSLKTEDTAVYYCHYVHYASASTVLPAFGVDAWGQGTTVTVSS
VL: DIVMTQSPLSLPVTPGEPASISCQASQELVHMYRNTYLHWYQQKPGQAPRLLIYKVSNRFPGVPDRFSGSGSGTDFTLKISRVEAEDVGVYYCAQGTSVPFTFGQGTKLEIK
Consider B5, for which the fold change of affinity came out at 0 fold.

B6: H183/L072 VL N28W (antibody, name in Kabat numbering, V domains shown)
VH: QVQLVESGGGLVQPGRSLRLSCAASGFTFSNAWMHWVRQAPGKGLEWVAQIKDKGNAYAAYYAPSVKGRFTISRDDSKNSIYLQMNSLKTEDTAVYYCHYVHYASASTVLPAFGVDAWGQGTTVTVSS
VL: DIVMTQSPLSLPVTPGEPASISCQASQELVHMWRNTYLHWYQQKPGQAPRLLIYKVSNRFPGVPDRFSGSGSGTDFTLKISRVEAEDVGVYYCAQGTSVPFTFGQGTKLEIK
Take B6: the fold change of affinity is 0 fold.

B7: H183/L072 VL H27dW (antibody, name in Kabat numbering, V domains shown)
VH: QVQLVESGGGLVQPGRSLRLSCAASGFTFSNAWMHWVRQAPGKGLEWVAQIKDKGNAYAAYYAPSVKGRFTISRDDSKNSIYLQMNSLKTEDTAVYYCHYVHYASASTVLPAFGVDAWGQGTTVTVSS
VL: DIVMTQSPLSLPVTPGEPASISCQASQELVWMNRNTYLHWYQQKPGQAPRLLIYKVSNRFPGVPDRFSGSGSGTDFTLKISRVEAEDVGVYYCAQGTSVPFTFGQGTKLEIK
As for B7, the fold change of affinity is 0 fold.

B8: H183/L072 VL Y32W (antibody, name in Kabat numbering, V domains shown)
VH: QVQLVESGGGLVQPGRSLRLSCAASGFTFSNAWMHWVRQAPGKGLEWVAQIKDKGNAYAAYYAPSVKGRFTISRDDSKNSIYLQMNSLKTEDTAVYYCHYVHYASASTVLPAFGVDAWGQGTTVTVSS
VL: DIVMTQSPLSLPVTPGEPASISCQASQELVHMNRNTWLHWYQQKPGQAPRLLIYKVSNRFPGVPDRFSGSGSGTDFTLKISRVEAEDVGVYYCAQGTSVPFTFGQGTKLEIK
With B8, the fold change of affinity is 0 fold.

B9: H183/L072 VL T31W (antibody, name in Kabat numbering, V domains shown)
VH: QVQLVESGGGLVQPGRSLRLSCAASGFTFSNAWMHWVRQAPGKGLEWVAQIKDKGNAYAAYYAPSVKGRFTISRDDSKNSIYLQMNSLKTEDTAVYYCHYVHYASASTVLPAFGVDAWGQGTTVTVSS
VL: DIVMTQSPLSLPVTPGEPASISCQASQELVHMNRNWYLHWYQQKPGQAPRLLIYKVSNRFPGVPDRFSGSGSGTDFTLKISRVEAEDVGVYYCAQGTSVPFTFGQGTKLEIK
With B9, the fold change of affinity worked out at 0 fold.

B10: H183/L072 VL L33W (antibody, name in Kabat numbering, V domains shown)
VH: QVQLVESGGGLVQPGRSLRLSCAASGFTFSNAWMHWVRQAPGKGLEWVAQIKDKGNAYAAYYAPSVKGRFTISRDDSKNSIYLQMNSLKTEDTAVYYCHYVHYASASTVLPAFGVDAWGQGTTVTVSS
VL: DIVMTQSPLSLPVTPGEPASISCQASQELVHMNRNTYWHWYQQKPGQAPRLLIYKVSNRFPGVPDRFSGSGSGTDFTLKISRVEAEDVGVYYCAQGTSVPFTFGQGTKLEIK
Take B10: the fold change of affinity worked out at 0 fold.

B11: H183/L072 VL L27bW (antibody, name in Kabat numbering, V domains shown)
VH: QVQLVESGGGLVQPGRSLRLSCAASGFTFSNAWMHWVRQAPGKGLEWVAQIKDKGNAYAAYYAPSVKGRFTISRDDSKNSIYLQMNSLKTEDTAVYYCHYVHYASASTVLPAFGVDAWGQGTTVTVSS
VL: DIVMTQSPLSLPVTPGEPASISCQASQEWVHMNRNTYLHWYQQKPGQAPRLLIYKVSNRFPGVPDRFSGSGSGTDFTLKISRVEAEDVGVYYCAQGTSVPFTFGQGTKLEIK
B11: the fold change of affinity turned out to be 0 fold.

B12: H183/L072 VL T31F (antibody, name in Kabat numbering, V domains shown)
VH: QVQLVESGGGLVQPGRSLRLSCAASGFTFSNAWMHWVRQAPGKGLEWVAQIKDKGNAYAAYYAPSVKGRFTISRDDSKNSIYLQMNSLKTEDTAVYYCHYVHYASASTVLPAFGVDAWGQGTTVTVSS
VL: DIVMTQSPLSLPVTPGEPASISCQASQELVHMNRNFYLHWYQQKPGQAPRLLIYKVSNRFPGVPDRFSGSGSGTDFTLKISRVEAEDVGVYYCAQGTSVPFTFGQGTKLEIK
Consider B12, for which the fold change of affinity was found to be 0 fold.

B13: H183/L072 VL Y32F (antibody, name in Kabat numbering, V domains shown)
VH: QVQLVESGGGLVQPGRSLRLSCAASGFTFSNAWMHWVRQAPGKGLEWVAQIKDKGNAYAAYYAPSVKGRFTISRDDSKNSIYLQMNSLKTEDTAVYYCHYVHYASASTVLPAFGVDAWGQGTTVTVSS
VL: DIVMTQSPLSLPVTPGEPASISCQASQELVHMNRNTFLHWYQQKPGQAPRLLIYKVSNRFPGVPDRFSGSGSGTDFTLKISRVEAEDVGVYYCAQGTSVPFTFGQGTKLEIK
B13: the fold change of affinity was found to be 0 fold.

B14: H183/L072 VL H27dY (antibody, name in Kabat numbering, V domains shown)
VH: QVQLVESGGGLVQPGRSLRLSCAASGFTFSNAWMHWVRQAPGKGLEWVAQIKDKGNAYAAYYAPSVKGRFTISRDDSKNSIYLQMNSLKTEDTAVYYCHYVHYASASTVLPAFGVDAWGQGTTVTVSS
VL: DIVMTQSPLSLPVTPGEPASISCQASQELVYMNRNTYLHWYQQKPGQAPRLLIYKVSNRFPGVPDRFSGSGSGTDFTLKISRVEAEDVGVYYCAQGTSVPFTFGQGTKLEIK
As to B14, the fold change of affinity is 0 fold.
